22 sequences from the supplement of paper PMC9233669 can be followed below.

This sample holds only a part of the variants without activity.

For data set [1], the system named is biotinyl-Phe-oxazolone. The data set can be described thus: self-aminoacylation, catalytic enhancement (BFO) (fold over background); higher = more active; k-Seq, kA / k0A0; sequences stand for … in GGGAAUGGAUCCACAUCUACGAAUUC…UUCACUGCAGACUUGACGAAGCUG
Put shortly:
(§1)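 Each biotinyl-aminoacyl-oxazolone, at 2–1250 μM, was incubated with mutagenized RNA pools (0.43 μM) carrying a 21-nt variable region. The 50 μL reactions contained HEPES/NaCl/KCl/MgCl2/CaCl2 buffer with 5% acetonitrile at pH 6.9–7.0 and ran for 90 minutes at room temperature. After streptavidin capture, RNA was measured by qPCR in triplicate and by Illumina sequencing, and catalytic enhancement was calculated as median kA over the uncatalyzed rate from a pseudo-first-order fit of per-sequence fraction reacted.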

Data set [2] relates to biotinyl-Met-oxazolone. Nature of the data set: self-aminoacylation, catalytic enhancement (BMO) (fold over background); higher = more active; k-Seq, kA / k0A0; sequences stand for … in GGGAAUGGAUCCACAUCUACGAAUUC…UUCACUGCAGACUUGACGAAGCUG
The method in brief: as §1

For data set [3], the system named is biotinyl-Leu-oxazolone. The data set can be described thus: self-aminoacylation, catalytic enhancement (BLO) (fold over background); higher = more active; k-Seq, kA / k0A0; sequences stand for … in GGGAAUGGAUCCACAUCUACGAAUUC…UUCACUGCAGACUUGACGAAGCUG
Put shortly: as §1

For data set [4], the system named is biotinyl-Ile-oxazolone. Nature of the data set: self-aminoacylation, catalytic enhancement (BIO) (fold over background); higher = more active; k-Seq, kA / k0A0; sequences stand for … in GGGAAUGGAUCCACAUCUACGAAUUC…UUCACUGCAGACUUGACGAAGCUG
Put shortly: as §1

Data set [5] relates to biotinyl-Trp-oxazolone. Nature of the data set: self-aminoacylation, catalytic enhancement (BWO) (fold over background); higher = more active; k-Seq, kA / k0A0; sequences stand for … in GGGAAUGGAUCCACAUCUACGAAUUC…UUCACUGCAGACUUGACGAAGCUG
The method in brief: as §1

The subject of data set [6] is biotinyl-Val-oxazolone. The data set can be described thus: self-aminoacylation, catalytic enhancement (BVO) (fold over background); higher = more active; k-Seq, kA / k0A0; sequences stand for … in GGGAAUGGAUCCACAUCUACGAAUUC…UUCACUGCAGACUUGACGAAGCUG
The method in brief: as §1

“AAUCACCUAGGUCAUCGGAUG [Fam2.2 aminoacylation ribozyme variant]”: the self-aminoacylation was 0.476 in data set [1]; 0.909 in data set [2]; 0.798 in data set [3]; 1.06 in data set [4]; 1.08 in data set [5]; 1.19 in data set [6].
“AAUCACCUAGGUCAUGGGGUG [Fam2.2 aminoacylation ribozyme variant]”: the self-aminoacylation in data set [1] was determined as 19.4; in data set [2] it was 3.26; in data set [3], 4.25; in data set [4] it was 3.44; in data set [5], 4.91; in data set [6], 3.71.
For “AAUCACCUAGGUUAUCGGGUG [Fam2.2 aminoacylation ribozyme variant]”, the self-aminoacylation in data set [1] stood at 38.4; in data set [2] it was 4.32; in data set [3] it was 4.57; in data set [4], 3.83; in data set [5], 7.07; in data set [6], 4.23.
In the case of “AAUCACCUAGUUCAUCGGGUG [Fam2.2 aminoacylation ribozyme variant]”, the self-aminoacylation in data set [1] was determined as 16.3; in data set [2] it was 3.33; in data set [3], 2.59; in data set [4] it was 3.01; in data set [5], 3.72; in data set [6], 3.16.
As to “AAUCACCUUGGUCAUCGGGUG [Fam2.2 aminoacylation ribozyme variant]”, the self-aminoacylation came to 43.2 in data set [1]; 6.06 in data set [2]; 6.76 in data set [3]; 4.22 in data set [4]; 8.74 in data set [5]; 5.18 in data set [6].
As for “AAUCACGUAGGUCAUCGGGUG [Fam2.2 aminoacylation ribozyme variant]”, the self-aminoacylation turned out to be 30.4 in data set [1]; 3.19 in data set [2]; 4.02 in data set [3]; 3.09 in data set [4]; 4.86 in data set [5]; 3.77 in data set [6].
Regarding “AAUCAGCUAGGUCAUCGGGUG [Fam2.2 aminoacylation ribozyme variant]”, the self-aminoacylation in data set [1] was 37.5; in data set [2] it was 4.97; in data set [3], 5.01; in data set [4], 5.2; in data set [5], 7.54; in data set [6], 6.64.
Turning to “AAUUUGGCUAAUAGUCGCAAG [Fam3.1 aminoacylation ribozyme variant]”, the self-aminoacylation in data set [1] is 2.14; in data set [2], 1.82; in data set [3], 1.96; in data set [4] it was 1.79; in data set [5] it was 1.99; in data set [6], 1.7.
As to “AAUUUUGCCAAUAGUCGCAAG [Fam3.1 aminoacylation ribozyme variant]”, the self-aminoacylation in data set [1] worked out at 2.34; in data set [2], 2.31; in data set [3], 1.8; in data set [4], 1.78; in data set [5] it was 1.8; in data set [6], 1.69.
In the case of “AAUUUUGCUAAUAGCCGCAAG [Fam3.1 aminoacylation ribozyme variant]”, the self-aminoacylation in data set [1] was found to be 1.7; in data set [2], 1.33; in data set [3], 1.49; in data set [4], 1.74; in data set [5] it was 1.31; in data set [6], 1.44.
Regarding “AAUUUUGCUAAUAGUCGAAAG [Fam3.1 aminoacylation ribozyme variant]”, the self-aminoacylation in data set [1] is 3.69; in data set [2], 1.16; in data set [3] it was 1.2; in data set [4] it was 1.56; in data set [5], 2.11; in data set [6], 0.991.
As for “AAUUUUGCUAAUAGUGGCAAG [Fam3.1 aminoacylation ribozyme variant]”, the self-aminoacylation amounted to 0.836 in data set [1]; 0.798 in data set [2]; 0.633 in data set [3]; 0.771 in data set [4]; 0.652 in data set [5]; 0.632 in data set [6].
“AAUUUUGCUAAUAGUUGCAAG [Fam3.1 aminoacylation ribozyme variant]”: the self-aminoacylation in data set [1] was found to be 2.06; in data set [2] it was 1.54; in data set [3], 1.63; in data set [4], 1.73; in data set [5], 1.75; in data set [6], 1.53.
For the sequence “AAUUUUGCUAAUAUUCGCAAG [Fam3.1 aminoacylation ribozyme variant]”, the self-aminoacylation turned out to be 1.5 in data set [1]; 1.55 in data set [2]; 1.57 in data set [3]; 1.92 in data set [4]; 2.15 in data set [5]; 1.5 in data set [6].
Take “AAUUUUGCUACUAGUCGCAAG [Fam3.1 aminoacylation ribozyme variant]”: the self-aminoacylation in data set [1] stood at 2.25; in data set [2], 1.53; in data set [3] it was 1.54; in data set [4], 1.87; in data set [5], 2.5; in data set [6], 1.74.
For “AAUUUUGCUCAUAGUCGCAAG [Fam3.1 aminoacylation ribozyme variant]”, the self-aminoacylation is 3.17 in data set [1]; 1.82 in data set [2]; 1.98 in data set [3]; 1.85 in data set [4]; 1.69 in data set [5]; 1.57 in data set [6].
With “ACAACCCUGGUCAUCGAGUGA [Fam2.1 aminoacylation ribozyme variant]”, the self-aminoacylation in data set [1] was found to be 17.4; in data set [2], 11.4; in data set [3] it was 12.2; in data set [4], 6.16; in data set [5] it was 12.5; in data set [6] it was 5.2.
Turning to “ACACAAUUCAAGCAAUCGGUC [Fam1B.1 aminoacylation ribozyme variant]”, the self-aminoacylation came to 1.95 in data set [1]; 1.21 in data set [2]; 1.21 in data set [3]; 1.44 in data set [4]; 1.67 in data set [5]; 1.18 in data set [6].
Regarding “ACACACUCCAAGCAAUCGGUC [Fam1B.1 aminoacylation ribozyme variant]”, the self-aminoacylation in data set [1] is 1.92; in data set [2], 0.768; in data set [3], 0.864; in data set [4], 0.959; in data set [5], 0.999; in data set [6], 0.924.
For “ACACACUUCAAGCAAUCAGUC [Fam1B.1 aminoacylation ribozyme variant]”, the self-aminoacylation turned out to be 9.33 in data set [1]; 0.988 in data set [2]; 0.999 in data set [3]; 1.12 in data set [4]; 4.18 in data set [5]; 1.11 in data set [6].
On to “ACACACUUCAAGCAAUCGGUA [Fam1B.1 aminoacylation ribozyme variant]”, for which the self-aminoacylation was 2 in data set [1]; 1.66 in data set [2]; 1.84 in data set [3]; 1.73 in data set [4]; 2.19 in data set [5]; 1.55 in data set [6].
Turning to “ACACACUUCAAGCUAUCGGUC [Fam1B.1 aminoacylation ribozyme variant]”, the self-aminoacylation amounted to 1.15 in data set [1]; 1.03 in data set [2]; 1.1 in data set [3]; 1.33 in data set [4]; 0.982 in data set [5]; 1.2 in data set [6].
